This passage reports ratio to parent results from paper PMC6435701.

The target in experiment [1] is ATAD3A K135Q (Flag-tagged). As to the kind of experiment: non-reducing western blot of ATAD3A dimer (with or without β-ME), densitometry. The conditions noted are these: HEK293 cells transfected for 48 h; at least 6 independent experiments; parent: est. 1.0; read off a plot. (In general: In western blotting, separated proteins are transferred to a membrane and probed.)

The target of the next experiment is Myc-tagged ATAD3A. In words: co-immunoprecipitation (IP anti-Flag, WB anti-Myc), densitometry. To be noted: HEK293 cells transfected for 48 h; five independent experiments; parent: est. 1.0; read off a plot.
The target of experiment [2] is ATAD3A K135E (Flag-tagged). In words: non-reducing western blot of ATAD3A dimer (with or without β-ME), densitometry. The conditions noted are these: HEK293 cells transfected for 48 h; at least 6 independent experiments; parent: est. 1.0; read off a plot.

“ATAD3A-Flag wildtype (in HEK293 cells) K135Q”: the ratio to parent stood at 0.8 in experiment [1] and 0.58 with Myc-tagged ATAD3A.

On to “ATAD3A-Flag wildtype (in HEK293 cells) K135E”, for which the ratio to parent in experiment [2] was 2.3; with Myc-tagged ATAD3A, 1.6.
